Bridge positions count the residues as written; N and C are the ends.
How the values were obtained:
[1] = biological target: KDR on KDR-transfected 293H cells (human), P35968; assay: competitor 125I-VEGF (300 pM), KDR-transfected 293H cells, peptide 30 µM; conditions: remark: other sources report otherwise
[2] = biological target: KDR on KDR-transfected 293H cells (human), P35968; assay: competitor 125I-VEGF (300 pM), KDR-transfected 293H cells, peptide 0.3 µM; conditions: remark: other sources report otherwise

Ac-AGPKWCEEDWYYCMITGTGGGK-NH2 (disulfide 6-13 (inferred); also: fluorescein on C-terminal Lys in FP only) [SEQ ID NO:264]
% inhibition of 125I-labeled VEGF binding [1]: 48%
% inhibition of 125I-labeled VEGF binding [2]: 24.4%
